assay: yeast display, Sf9 membrane polyspecificity reagent, FACS + sequencing; frameworks hold sequencing errors
Summary of the method: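 A synthetic nanobody library was expressed on Saccharomyces cerevisiae BJ5465 by galactose induction for 36–48 hours. The library was stained for 1 hour at 4 °C with 10% biotinylated, detergent-solubilized Sf9 membrane reagent and enriched with streptavidin microbeads before FACS. Low and high (top ~1%) gates were set on anti-HA fluorescence for expression and streptavidin fluorescence for reagent binding, and each polyreactivity label reflects the gate of origin.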

Sequence	polyreactivity (PSR sort gate)
QVQLVESGGGLVQAGGSLRLSCAASGRTYDQYVMGWYRQAPGKERELVAAITSGGSTYYADSVKGRFTISRDNAKNTVYLLMNSLKPEDTAVYYCNARTSVLHDYWGQGTQVTVSS	low polyreactivity
QVQLVESGGGLVQAGGSLRLSCAASGRTYGIYAMGWYRQAPGKERELVADITIGGSTYYADSVMGRFTISRDNAKNTVYLQMNSLKPEDTAVYYCNADFVVQYYFTYYRVFTYDYWGLGTQVTVSS	low polyreactivity
QVQLVESGGGLVQAGGSLRLSCAASGRTYGRNAMGWYRQEPGKDRELVASITKRGGSTYYADSVKGRFTISRDNAKNTVYLQMNSLKPEDTAVYYCAVEAYDYWGQGSQVTVSS	high polyreactivity
QVQLVESGGGLVQAGGSLRLSCAASGRTYGYYAMGWYRQAPGKERELVAAITRSGGSTYYADSVKGRFTISRDNAKNTVYLQMNSLKPEDTAVYYCNAVYYKGYGYWGQGSQVTVSS	high polyreactivity
QVQLVESGGGLVQAGGSLRLSCAASGRTYKYYAMGWYRQAPGKERELVAAISRGGSTNYADSVKGRFTISRDNAKKTVYLQVNSLKPEDTAVYYCARRYIVQSGDDYWGQGTQVSVSS	low polyreactivity
QVQLVESGGGLVQAGGSLRLSCAASGRTYPGYSMGWYRQAPGKERELVAAITRGSTNYADSVKGRFTISRDNAKNTVYLQMNSLKPEYTAVYYCATRGYYYWTHYDYWGHGTQVTVSS	low polyreactivity
QVQLVESGGGLVQAGGSLRLSCAASGRTYYDYAKGCYRQAPGKEREFVSAITDRDASTSYADSVKGRFTISRDNAKTTVYLQMNSLKPYDTAVYYCAADEYWYKPYVGELYAYVYWGEGTQVTVSS	low polyreactivity
QVQLVESGGGLVQAGGSLRLSCAASGRVYAMGWYRQAPGKERELVAAISRNGGSTYYADSVKGRFTISRDNAKNNVYLQMNSLKPEDTAVYYCNKYSGYKGTDGGDYWGQGTQVTVSS	low polyreactivity
QVQLVESGGGLVQAGGSLRLSCAASGSARYAMGWYRQAPGKERELVAAISRRGGSTFYADSVKGRFTISRDNAKNTVYLQMHSLKPEDTAVYYCAADGRISYDYWGQGTQVTVSS	low polyreactivity
QVQLVESGGGLVQAGGSLRLSCAASGSFLEPYSMGRYRQATGKERELVAAISFSDTSTYYADSVKGRFTISRDNAKNTVYLQMNSLKQEDTAVYYCAATYVLYWGYEYDYWGQGTQVTVSS	high polyreactivity
QVQLVESGGGLVQAGGSLRLSCAASGSFLVYYAMGWYRQAPGKERELVAAISWRGDSTSYADSVKGRFTISRDNAKNTVYLQMNSLKPEETAVYYCATAHDYAFYRYWYVPSEYNYWGQGTQVTVSS	low polyreactivity
QVQLVESGGGLVQAGGSLRLSCAASGSHFSSYVMGGYRQGPGKERELVAAISSIGGSTYYADSVKGRFTISRDNAKNTVYLQMNSLKPEDTAVYYCAAEPPGSTYEGGYWGQGTQVTVSS	low polyreactivity
QVQLVESGGGLVQAGGSLRLSCAASGSIAHYAMGWYRQDPGKERELVAAINWSGGSTNYADSVKGRFTISRDNAKNTVYLQMNSMKPEDTAVYYCSAQKRGPGYPYYYWGQGTQVTVSS	high polyreactivity
QVQLVESGGGLVQAGGSLRLSCAASGSICAYYAMGWYRQAPGKERELVAAISGTGGSTNYADSVKGRFTISRDNAKNNVYLQMNSLKPEDTAVYYCAKDYSFQWRNEFNLAGEYDYWGQGTQVTVSS	low polyreactivity
QVQLVESGGGLVQAGGSLRLSCAASGSICGSYAMGWYRQAPGKERELVAAITRSGSRTYYADSVKGRFTISRDNAKNTVYLQMISLKPEDTAVYFCATGYPGGFDYWGQGTQVTVSS	high polyreactivity
QVQLVESGGGLVQAGGSLRLSCAASGSICRRNDMGWYRQAPGKERELVAAISSNGGSTYYADSVKGRFTISRDNAKNTVYLQMNSLKPEDTAVYYCNALVRVRYSPRYGYDYWGQGTQVTVSS	high polyreactivity
QVQLVESGGGLVQAGGSLRLSCAASGSICVQYAMGRSRQAPGKERELVAAISNSGGSTYYADSVKGRFTISRDTAKNTVYLQMNSLKPEDTAVYYCAARYHTRGAGRPYYYWGQGTQVTVSS	high polyreactivity
QVQLVESGGGLVQAGGSLRLSCAASGSIFAAYTMGWYRQAPGKERELVAAISVSTVSTYYADSVKGRFTISRDNAKNTVYLHMNSLKPEDTAVYYCNADATDSYPEKDDHDSWGQGTQVTVSS	low polyreactivity
QVQLVESGGGLVQAGGSLRLSCAASGSIFAAYTMGWYRQAPGKERELVAAISVSTVSTYYADSVKGRFTISRDTAKNTVYLQMNRLKPEDTAVYYCNADATDSYPEKDEHDSWGQGTQVTVSS	low polyreactivity
QVQLVESGGGLVQAGGSLRLSCAASGSIFAAYTMGWYRQAPGKERELVATISSGGSTYYADSVKGRFTISRDNAKNTVYLQMNSLKPEDTAVYYCAAVAYTYTEYEYWGQGTQVTVSS	low polyreactivity
QVQLVESGGGLVQAGGSLRLSCAASGSIFADNAKGWYRQAPGKEMDLVAAITWSGGSTYYADSVKGRFTISRDNAKNTVYLQMNSLKPEDTAVYYCNADDAVEYSYGGGTEFYYWGQGTQVTVSS	low polyreactivity
QVQLVESGGGLVQAGGSLRLSCAASGSIFADYAMGWSRQAPGKEREFVAAITRSGTSTYYADSVKGRFTISRDNAKNTVYLQMNSLKPEDTAVYYCAKTEVLLYLYTLDYWGQGTQVTVSS	low polyreactivity

Sequence	polyreactivity (PSR sort gate)
QVQLVESGGGLVQAGGSLRLSCAASGSIFADYAMGWYRQAPGKERELVAVISRRGGTTYYADSVKGRFTISRDNAKNTVYLQMNSLKPEDTAVYYCAARRSFNEYDYWGQGTQVTVSS	high polyreactivity
QVQLVESGGGLVQAGGSLRLSCAASGSIFADYVMGWYRQAPGKERELVAAISRGGGRTYYADSVKGRFTISRDNAKNTVYLQMNSLKPEDTAVYYCAARGYPTNYDPGYTYDYWGQGTQVTVSS	high polyreactivity
QVQLVESGGGLVQAGGSLRLSCAASGSIFAGNAMGWYRQAPAKERELVAAISRRGGSTYYADSVKGRFTISRDNAKNTVYLQMNSLKPEDTAVSYCNALLRYAYHAAYGYWGQGTQVTVSS	high polyreactivity
QVQLVESGGGLVQAGGSLRLSCAASGSIFAGNAMGWYRQAPGKERELVAAISRRGGSTYYADSVKGRFTISRDNAKNTVYLQMNSLKPEDTAVYYCAAANWQRYYYWGQGTQVTVSS	high polyreactivity
QVQLVESGGGLVQAGGSLRLSCAASGSIFAGNAMGWYRQAPGKERELVAAISRRGGSTYYADSVKGRFTISRDNAKNTVYLQMNSLKPEDTAVYYCNALLRYAYHAAYGYWGQGTQVTVSS	high polyreactivity
QVQLVESGGGLVQAGGSLRLSCAASGSIFAGNTMGWYRQAPGKEREFVASIRSSSGSTYYADSVKGRFTISRDNAKNTVYLQMNSLKPEDTAVYYCAARVYHYREFWVNYWGHGTQVTVSS	high polyreactivity
QVQLVESGGGLVQAGGSLRLSCAASGSIFAGNVMGWYRQAPGKESELVAAISRRGGRTYYADSVKGRFTISRDNAKNTVYLQMNSLKPEDTAVYYCAARRDPVLGKSDYWGQGTQVTVSS	high polyreactivity
QVQLVESGGGLVQAGGSLRLSCAASGSIFAHYAMGGYRQAPGKERELVAAITRGGGTYYADSVKGRFTLSRDNAKNTVYLQMNSVKPEDTAVYYCARIYYVSIYRYDYWGQGTQVTVSS	high polyreactivity
QVQLVESGGGLVQAGGSLRLSCAASGSIFAINAMGWYRQAPGKERELVAAIRRRDGNTYYADSVKGRFTISRDNAKNSVYLQMNSLKPEDTAVYYCNTYSRRTSVIAYRYNYWGQGTQVTVSS	high polyreactivity
QVQLVESGGGLVQAGGSLRLSCAASGSIFAKNAMGWYRQAPGKERELVAAISRGGNSYYADSVKGRFTISRDNAKNPVYFPMNSLTPEDTAVYYCAADYYWYVWEYPTYWYEYWGQGTQVTVSS	high polyreactivity
QVQLVESGGGLVQAGGSLRLSCAASGSIFAKYAMGLYRQAPGKERELVAGITRGGSTYYADSVKGRFTISRDNAKNTVYLQMNSLKQEDTAVYYCAAKRHTSLYVYYYWGLGTQVTVSS	high polyreactivity
QVQLVESGGGLVQAGGSLRLSCAASGSIFAKYAMGWYRQAPGKERELVAAITGSGGSTYYADSVKGRFTISRDNAKNTVYLQMNSVKPEDTAVYYCAKRRPRYTYNYWGQGTQVTVSS	high polyreactivity
QVQLVESGGGLVQAGGSLRLSCAASGSIFALYAIGWYRQAPGKEREFVAAISYNGGSTYYADSVKGRFTISRDNAKNTVYLQMNSLKPEDTAVYYCNDVYYDSGVVGYYYWGQGTQVTVSS	high polyreactivity
QVQLVESGGGLVQAGGSLRLSCAASGSIFALYAMGWYRQAPGKERELVAAISYRGGRTYYADSVKGRFTISRDNAKNTVYLQMNSLKPEDTAVYYCKAAYGTSYLYNSEFYAAFTYDYWGQGTQVTVSS	low polyreactivity
QVQLVESGGGLVQAGGSLRLSCAASGSIFAPNAMGWYRQAPGKERELVAAITLSGGSRYYADSVKGRFTISREIAMNNVYLQMNSLKPEDTAVYYCNADLLPADAPLWVTGGDYWGQGTQVTVSS	low polyreactivity
QVQLVESGGGLVQAGGSLRLSCAASGSIFAPYTMGWYRQAPGKERELVAAISSSGTSTYYADSVKGRFTISRDNAKNTVYLQMNSLKPEDTAVYYCAADWYYHYGYWGQGTQVTVSS	high polyreactivity
QVQLVESGGGLVQAGGSLRLSCAASGSIFARYAMGWYRQAPGKERELVAAINSTVSTNYADSVKGRFTISRDNAKNTVYLQMNSLKPEDTAVYYCAVDIVRGGRDSWGQGTLVTVSS	low polyreactivity
QVQLVESGGGLVQAGGSLRLSCAASGSIFARYAMGWYRQAPGKERELVAAITGRGGSTYYADSVKGRFTISRDNAKNTVYLHMNSLKPEDTAVYYCAPKDVRRTRGGSGDYWGQGTQVTVSS	high polyreactivity
QVQLVESGGGLVQAGGSLRLSCAASGSIFARYAMGWYRQAPGKERELVAAITRSGVSTYYADSVKGRFTISRDNAKNTVYLQMNSLKPEDTAVYNCNAYYPIRSTPYGYYYWGQGTQVTVSS	high polyreactivity
QVQLVESGGGLVQAGGSLRLSCAASGSIFASNAMGWYRQAPGKERELVAAITSSGRTKYADSVKGRFTISRDNAKNTVYFQMNSLKPEDTAVYYCAAVYYTYFGRYDYWGQGTQVTVSS	high polyreactivity
QVQLVESGGGLVQAGGSLRLSCAASGSIFASNAMGWYRQAPGTERELVAAIDTSGGSTYYADSVKGRFTISRDNAKNTVYLQMNSLKPEDTAVYYCNTDWRDEYYPRYRASKFDYWGQGTQVTVSS	low polyreactivity
